assay: soluble on expression in E. coli; label from the status in PepcDB or PDB records

Sequence | soluble on expression in E. coli
MADIGSTYNGPLSSHWFPEELAQWEPDSDPDAPFNRSHVPLEPGRVADRVNANADTDAHLVSLSALNRHTSGVPSQGAPVFYENTFSYWHYTDLMVYWAGSAGEGIIVPPSADVIDASHRNGVPILGNVFFPPTVYGGQLEWLEQMLEQEEDGSFPLADKLLEVADYYGFDGWFINQQTEGADEGTAEAMQAFLVYLQEQKPEGMHIMWYDSMIDTGAIAWQNHLTDRNKMYLQNGSTRVADSMFLNFWWRDQRQSNELAQALGRSPYDLYAGVDVEARGTSTPVQWEGLFPEGEKAHTSLGLYRPDWAFQSSETMEAFYEKELQFWVGSTGNPAETDGQSNWPGMAHWFPAKSTATSVPFVTHFNTGSGAQFSAEGKTVSEQEWNNRSLQDVLPTWRWIQHGGDLEATFSWEEAFEGGSSLQWHGSLAEGEHAQIELYQTELPISEGTSLTWTFKSEHGNDLNVGFRLDGEEDFRYVEGEQRESINGWTQWTLPLDAFAGQTITGLAFAAEGNETGLAEFYIGQLAVGADSEKPAAPNVNVRQYDPDPSGIQLVWEKQSNVHHYRVYKETKHGKELIGTSAGDRIYLEGLVEESKQNDVRLHIEALSETFVPSDARMIDIKSGSF | soluble
MGSDKIHHHHHHMIPPASTLRSRLKMQHLRLLLSIEERGSLRQAADALSLSQPAVTKMLQDMEALLGVTLFERHLRGLRPTRFGMAVTRYANLVFSDLANLHDELVSLETGRIGKVRIGAVMAPTPVLMAEVIRRLKRDHPGLNMTVHVDTSDMLVPMLERDQLDLVLGRVPEGWDASHLTFEQLGDERLAVVVGCDHPLAKRTDPTFGELATYPWILQPRPSPMRALIDRSFEEAGVTAPQSTIETAAILMTTSLLTGSDLVAVVPMAVATFHASMGLLHILPVPLPRKLDPYGIVTRLGRPPSASMTLFVDVLRAVVEEGGQ | not soluble
GHHHHHHAIAENLYFQSAQYKGAASEAGRAMHLMKKREKQREQMEQMKQRIAEENIMKSNIDKKFSAHYDAVEAELKSSTVGLVTLNDMKAKQEALVKEREKQLAKKEQSKELQMKLEKLREKERKKEAKRKISSLSFTLEEEEEGGEEEEEAAMYEEEMEREEITTKKRKLGKNPDVDTSFLPDRDREEEENRLREELRQEWEAKQEKIKSEEIEITFSYWDGSGHRRTVKMRKGNTMQQFLQKALEILRKDFSELRSAGVEQLMYIKEDLIIPHHHSFYDFIVTKARGKSGPLFNFDVHDDVRLLSDATVEKDESHAGKVVLRSWYEKNKHIFPASRWEPYDPEKKWDKYTIR | not soluble
MAHHHHHHMGTLEAQTQGPGSMAIDPNSIGAVTEPMLFEWTDRDTLLYAIGVGAGTGDLAFTTENSHGIDQQVLPTYAVICCPAFGAAAKVGTFNPAALLHGSQGIRLHAPLPAAGKLSVVTEVADIQDKGEGKNAIVVLRGRGCDPESGSLVAETLTTLVLRGQGGFGGARGERPAAPEFPDRHPDARIDMPTREDQALIYRLSGDRNPLHSDPWFATQLAGFPKPILHGLCTYGVAGRALVAELGGGVAANITSIAARFTKPVFPGETLSTVIWRTEPGRAVFRTEVAGSDGAEARVVLDDGAVEYVAG | soluble
VKSNAQIDSVKCFSTMNDEEIVEDSRAGDDRALEYLINKYKGFVRAKARTYFLIGADREDIIQEGMIGLYKAIRDFRKDKLSSFRAFAELCITRQIITAIKTATRQKHIPLNSYVSLNKPIFDEESDRTLMDIISEESINDPEEMVINREEFSGIEAKMGEILSSLECEVLTSYLQGKSYQEIAVELDRHVKSIDNALQRVKRKLEKYLEESRI | soluble
STYEYKRELREGARGKWINLRQHLNSGTRLEKELIKVDRQIDKKAAEIKEIEDLLFKIEQYKAENNIR | not soluble
MTRSENFILDFTHIYIDENIEQTENIVRIDCSDILGTDLYCTKEGEAEIQKRIENFSINGVHFIDSGNYHYITKIMTDKINKKFSLVLYDHHTDMQKPMVEGMTSCGDWAAQVIEQNENLEQLILVGASEADIQQINVKNQSKLITFSAEELRNNSGREKLDLIETDVPFYISIDKDILDKHYIETNWSQGHMSLGMLEHLLKFFLKDKKIIGVDICGECQIGLPFPEYIEAEEKNAETNIELYEYIGRYMGK | not soluble
MSLETQDHTLYVLLGPTGVGKTDLSLDIAERLGSPIISADSRQIFRELPIGTAAPTPEQRARVPHLFVGTHSVRDYYSAGMYEVEVLEALKELFRKYRGVLLTGGSMMYIDAVCRGIDDIPDPFPEVREELYARYAAEGLDGILAQLRLLDPDYYAKVDRRNYKRVIHGLEICLSTGRPFSSFHRHEAKERPFRIVKIGLYREREELCKRIDARVLEMMEQGLEEEARAVYPLRHLNALNTVGYKEMFEYFDGSIDRAEAVRRIQRNSRVYARKQMTWFRRDSTIRWFHPEADKGTVLTLVTEGHHHHHH | soluble
MSITAQLAALAGHGIELAKEIFAHGTSLKSKEDLAAVLGFDPTRVGRYQKTAKALFGPTDQPQLRAQAIAIAQKNNFSIDVLALINCKVGRLADAPLREEFRLELHRFAVDNSYTAIKQFANDQLEKRNGPNPARQHSLRYARFSHHPDANGMRYLITSLPDETMTAIEAKLVDKAKAHKSDTISM | not soluble
SENSDVINFSCLEKELHSALQADRKYQRENDAKFRALNQKVASYEEFRDIVLASHLKPLDRNDISGSPRKQPWNPVACRTNYVCASSEQVQPQLSEVQPRSASEFIRDWRRFAGCSFEKYSLLVSLGGEALQKIFSTEIGLGLLGEFLLILSQCLKSGDEDRVTGVLDGLSKTGRFSINLSLLSQAEQEACEELFNKLKVAAGECHPYKDNSNTSVVCEAGLTHMEDNKTDITTTLKELAGKYGTEK | soluble
MAHHHHHHMNLIHICLFIIVIKCYVNCIKKNNKHIAYDKFYKQGSNTIVGSGNGSGDLLFLNNININKNVERKKNILAHSEIGTVRNIDDINLLNHNKKNEISFTKCKQIATIGPASENFEQLEKLYLNGIDVFRLNFSHGLKSIKKYIINSIRILEKKYDTTIGILGDIQGPKIRIGEFEKNQINENDNNTFVELKEGDLFSFDLMNSLGNQNRVQLNYPELIKNAKAGQIILLDDGNLKMKILENNYDTSNIQNSYIKVQVLTGGKLYSKKGFCIPNMIMPIDVLSEKDIKDILFCINEEVDFLGYSFVQTEYDLIFLRNIINDYYESDFYNNIKRKDRINFDQNNLQMKTFDDENDFYIKEVNDYYNNYYLKNVQKYKQIYDVYKNQDLYINDNIQNHYNKNIVTNIGDDKNIIDEQHIHNNNNNNIDNIMKNYSNLYNINKDHNKIAIISKIEKPSAIKNIENIIKLSDGIMIARGDLGIETNLSNLPILQKKLINLCRIKYNKPVIVATQMMESMRFLPSPTRAEVTDVATALYDGSDCVMLSAETATGQYPILTVSTQNKIIKDVENDYYYYEYTQRKNDKLKMLDHKNNCCHENKDIQQINKYNHEYIQNNKYEQDIQNNISYFDKLIFSIRDISNNINLKSIILFSNEFNKIQKLSNLRTKAPIIVITENKYLARKLQLTWGIYPHLSKKQNLFNHDLFSLINYGCDVSKKEGFVNSPDEYSLVTFSKNINSANLLYLCQPCLTN | not soluble
MGSDKIHHHHHHMDLSKIASTINMRYYSQLGGFQVGGAVSGLDTQSIINAILEAESQPLQNLTEKYEKYELMQEAYTEVKTKLREFRDLVYSFKLQSTVVQKTAVSSSSLLSAEASSVAVTGVYHVKIVQTATYTTLAGASEVVPPPDSTKTFGELDYMYTPQEGTVRLYNNETGNYVEVQVLSTDTIDDIVSKLNSALSSAGITGSVSYDTSTGKISITSDKNFSLVDITGNFTKVFHLDEASLNYSGGNYSFTSTASVSGLSTAKTLQQIATYTSKTIISGKVKINGVEIDVDQNDTLSSLIEKINDSEAGVTASYDYHANRVVIISKTSGPEAITLEDTYGTGLFSLLGIENHSLYVGQKAHLQISMDGTNWADVYSDTNDVEYNGVTFHISGMTSETITVDVRVDTDAIVEKIKEFVDKWNETMDYLNEKLTEESITDKDEEEMTEEEKMKGVLKGDDLLEEIFSRLRGFITYKAEGDINYLWELGISTGDIGTGYENMMKGHLEVDEEKLKQIVEEDPNKVWEFFGGENGFATQLDDYLWELVKFNGRIDQVAGISGRIEREQRFLATQIASWIERLSKREQELWRKFSVMEEVISQLQSQGSWISQALQGSSNK | not soluble

Reference: the DeepSol protein solubility set
